Experimental findings from IntAct's records for PubMed 16996049 are described below.

To fix the notation:
B1: Partitioning defective protein 6 (Caenorhabditis elegans), Q9NAN2 (parent)
chain: MSYNGSYHQNHHSTLQVKSKFDSEWRRFSIPMHSASGVSYDGFRSLVEKLHHLESVQFTLCYNSTGGDLLPITNDDNLRKSFESARPLLRLLIQRRGESWEEKYGYGTDSDKRWKGISSLMAQKPPKRSYSISNPEDFRQVSAIIDVDIVPEAHRRVRLCKHGQERPLGFYIRDGTSVRVTERGVVKVSGIFISRLVDGGLAESTGLLGVNDEVLEVNGIEVLGKTLDQVTDMMVANAHNLIITVKPANQRNTLSRGPSQQGTPNASEMSAATAAATGGIQRPMKMNGSSDGSYHPKQHDANDSDSGED

In this assay the parent is B1. To be noted: with cdc42_caeel cdc-42, Q05062.
Sequence of cdc42_caeel cdc-42, Q05062 (Q05062 whole entry): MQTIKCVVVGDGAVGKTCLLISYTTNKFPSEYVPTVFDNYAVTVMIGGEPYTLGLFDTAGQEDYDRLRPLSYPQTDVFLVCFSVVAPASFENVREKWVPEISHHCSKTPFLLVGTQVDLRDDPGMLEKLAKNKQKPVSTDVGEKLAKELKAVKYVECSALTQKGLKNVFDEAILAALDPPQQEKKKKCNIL
With MSYNGSYHQNHHSTLQVKSKFDSEWRRFSIPMHSASGVSYDGFRSLVEKLHHLESVQFTLCYNSTGGDLLPITNDDNLRKSFESARPLLRLLIQRRGESWEEKYGYGTDSDKRWKGISSLMAQKPPKRSYSISNAEAAAQVSAIIDVDIVPEAHRRVRLCKHGQERPLGFYIRDGTSVRVTERGVVKVSGIFISRLVDGGLAESTGLLGVNDEVLEVNGIEVLGKTLDQVTDMMVANAHNLIITVKPANQRNTLSRGPSQQGTPNASEMSAATAAATGGIQRPMKMNGSSDGSYHPKQHDANDSDSGED [P135A;D137A;F138A;R139A], the “effect of a mutation on the interaction” value is “disrupting interaction”. On to MSYNGSYHQNHHSTLQVKSKFDSEWRRFSIPMHSASGVSYDGFRSLVEKLHHLESVQFTLCYNSTGGDLLPITNDDNLRKSFESARPLLRLLIQRRGESWEEKYGYGTDSDKRWKGISSLMAQKPPKRSYSISNPEDFRQAAAAADVDIVPEAHRRVRLCKHGQERPLGFYIRDGTSVRVTERGVVKVSGIFISRLVDGGLAESTGLLGVNDEVLEVNGIEVLGKTLDQVTDMMVANAHNLIITVKPANQRNTLSRGPSQQGTPNASEMSAATAAATGGIQRPMKMNGSSDGSYHPKQHDANDSDSGED [V141A;S142A;I144A;I145A], for which the “effect of a mutation on the interaction” value is reported as “disrupting interaction”.
